# Measurements taken from the nanobody polyreactivity screen of Harvey et al. (2022).
# Assay: yeast display, Sf9 membrane polyspecificity reagent, FACS + sequencing; frameworks hold sequencing errors
# Procedure, shortened: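 A nanobody's polyreactivity label depends on the gate it was sorted from. Yeast display cells were stained with 10% biotinylated, detergent-solubilized Sf9 membrane reagent for 1 hour at 4 °C, enriched on streptavidin microbeads and sorted by FACS. The low and high (top ~1%) gates were set on anti-HA fluorescence for expression and streptavidin fluorescence for reagent binding.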
row,Sequence,polyreactivity (PSR sort gate)
1,QVQLVESGGGLVQAGGSLRLSCAASGRIFAYKAMGWYRQEPGKERELVAAISWSGSSTYYADSVKGRFTISRDNAKNTVYLQMNSLKPEDTAVYYCAATPWYYYSTSYAYYFWGQGTQVTVSS,high polyreactivity
2,QVQLVESGGGLVQAGGSLRLSCAASGRTFAYYVMGWDRQAPGKERELVAAISWSAGSTYYADSVKGRFTISRDNAKNTVYLQMNSLKPEDTAVYYCAADYRFRYEYWGQGTQVTVSS,low polyreactivity
3,QVQLVESGGGLVQAGGSLRLSCAASGFIFWVNAMGWYRKAPGKERELVAAISSSYGSTYYADYVKGRFSISRDNAKNTVYLQMNRLKPEDTAVCYSAARWLGHFYPFFLQGLSGFDYWGQGTHVTVSS,low polyreactivity
4,QVQLVESGGGLVQAVGSLRLSCAPSGSTFFKYARGWYRQAPGKERELVAVITRSGGTTYYADSVKGRFTISRDNAKNTVYLLMNSLKPEDTAVYYCAAGYYQYHRGYPTFTRYDYWGQGTQVTVSS,high polyreactivity
5,QVQLVESGGGLFQAGGSLRLSCAASVITFSQYVMGWYRQAPGKERELVAAISYRGGTTYYADSVKGRFTISRDNAKNTVYLQMISLKPEDTAVYYCATLPQRQYSTRDYWGQGTQVTVSA,high polyreactivity
6,QVQLVESGGGLDQAGGSLRLSCAASGSIFDRYAKGWYRQAPGTERELVASITWRATSTYYADSVKGRFTISRDNAKNTVYLKMNRLKPEETAVYYCAAAIAFGYRGTVAKYGYWGQGTQVTVSS,low polyreactivity
7,QVQLVESGGGLVQAGGSLRLSCAASGSTFSSYTMGWYRQAPGKERELVATINSRGDNTYYADSVKGRFTISRDNAKNTVYLQMNSLKPEDTAVYYCAARSRRHDFDYWGQGTQVTVSS,high polyreactivity
8,QVQRVESGGGLVQAGGSLRLSCAHSGRTFPRYVMGRYRQAPAKERELVAAITSSGGSTYYADSVKGRFTISRDNAKNTVYLQMNSLKPEDTAVYYCAAYARPYSGPYAYRLDYWGQGTQVTVSS,high polyreactivity
9,QVHLVESGGGLVQAGGSLRLICAASGSIFRRYAMGWYRQAPGKERELVASISSRGTRTYYADSVTWRFTISRDNAKNTVYLQMNSLKPEDTAVYYCAASYYTPYDYLGQGTQVTVSS,high polyreactivity
10,QVQLVESGGGLVQAGGSLRLSCAASGFIFSHYAMGWYRQAPGKERELVAAIRSGGTTNYADSVKGRFTISRDNAKHTVYLQMNSLKPEDTAVYYCAASSRRSWTYDYWGQGTQVTVSS,high polyreactivity
11,QVQLVESGGGLVQAGGSLRLSCAASGRNSLYYTMGWYRQAPGKEREFVAAISSTGGSTYYADSVKGRFTISRDNAKNTVYLLMNSLKPVDTAVYYCNKVYGGGTYDYWGQGTQVTVSS,low polyreactivity
12,QVQLVESGGGLVQAGGSLRLSCAASGSTFFEYAMGWYRQAPGKVREFVAGISWSGGITYYADSVKGRFTISRDNAKNTVYLQMNSLKPEDTAVYYCATAGGDWYGVDYWGQGTQVTVSS,low polyreactivity
13,QVQLVESGGGLDQAGGSLRLSCAASGSTFYAYTMGWYRQAPGKERELVARISGRGGSTYYADSVKGRFTISRDNAKNTVFLQMYSLKPEDTAVYFCASRVYGSYRGIQYGYWGQGTQETVSS,high polyreactivity
14,QVQLVESGGGLVQAGGSLRLSCAATGSTSGKNAMGWYRQAPAKERELFAAIRNSGGTTYYADSVKGRFTISRDNAKNTVYLQMNSLKPEDTAVYYCATRYYLNFLDGYNYWGQGTQVTVSS,high polyreactivity
15,QVQLVESGGGLVQAGGSLRLSCAASGSTFERYVMGWYRQAPGTERELVAAISRSGGTTYYADSVKGRFTISRDNAKNTVYLHMNSLKPEDTAVYYCAARYSVRGSQRPIYYYWGQGTQVTVSS,high polyreactivity
16,QVQLVESGGGLVQAGGSLRLSCAASGRIFVFYAMGWYRQAPGKERELVAAISKSVGPTYYADSVKGRFTISRDNAKNTVYLQMNSLKPEDTAVYYCASDVDRFFTYKYDYWGQGTQVTVSS,low polyreactivity
17,QVQHVESGGGLVQAGSLRLSCAASGSTFPYNAMGWYREAPGKERELVATISWSGGSTYYADSVKGRFTISRDNAKNTVYLQMNSLKPEDTAVYYCNATYGSSYDYWGQGTQVTVSS,low polyreactivity
